Source: patent US20230270825A1, “STAPLED OLEFIN CO-AGONISTS OF THE GLUCAGON AND GLP-1 RECEPTORS” (Merck Sharp & Dohme LLC, priority 2019, published 2023)
Numbered stars: 1 amine (or outer) side, 2 acyl side, 3 side chain; on linkers, the order of the positions; unused ones are H or OH. Bridge positions count the residues as written; N and C are the ends. Square brackets hold non-standard residues; d marks the D form. Side chains are listed from the residue outwards. Ends that are not written are not given here. Peptide text beside a SMILES is read from it. * marks the point of attachment. R6me = (R)-2-amino-2-methyloct-7-enoic acid, C=CCCCC[C@@](C)(N[*:1])C(=O)[*:2]; Nle(6-ylidene) = O=C([C@H](CCCC=[*:3])N[*:1])[*:2]; S7 = C[C@@](CCCCCC=[*:3])(N[*:1])C(=O)[*:2]; X1 = C[C@](CCCCC=[*:3])(N[*:1])C(=O)[*:2]; Gly(pent-4-enyl) = C=CCCC[C@H](N)C(=O)O; γGlu = O=C(O)[C@H](CCC(=O)[*:2])N[*:1]; Palmitoyl = CCCCCCCCCCCCCCCC(=O)*; S5 = C=CCCC[C@](C)(N)C(=O)O; Aib = CC(C)(N)C(=O)O

Legend:
human GCGR = biological target: T1, human GCGR (Homo sapiens, UniProt P47871); assay: cAMP activity assay, cells expressing human GCGR (HitHunter cAMP XS); type: cell-based; conditions: for hGCGR/hGLP1R (hTone): ratio of human GCGR EC50 to human GLP1R EC50; for EC50: cAMP production, 1 hour at room temperature, assay buffer with or without 20% human serum (not stated which)
T1 construct: expressed in transfected cells; assay-ready frozen cells grown with Blasticidin and Hygromycin
T1 sequence (P47871 26-477): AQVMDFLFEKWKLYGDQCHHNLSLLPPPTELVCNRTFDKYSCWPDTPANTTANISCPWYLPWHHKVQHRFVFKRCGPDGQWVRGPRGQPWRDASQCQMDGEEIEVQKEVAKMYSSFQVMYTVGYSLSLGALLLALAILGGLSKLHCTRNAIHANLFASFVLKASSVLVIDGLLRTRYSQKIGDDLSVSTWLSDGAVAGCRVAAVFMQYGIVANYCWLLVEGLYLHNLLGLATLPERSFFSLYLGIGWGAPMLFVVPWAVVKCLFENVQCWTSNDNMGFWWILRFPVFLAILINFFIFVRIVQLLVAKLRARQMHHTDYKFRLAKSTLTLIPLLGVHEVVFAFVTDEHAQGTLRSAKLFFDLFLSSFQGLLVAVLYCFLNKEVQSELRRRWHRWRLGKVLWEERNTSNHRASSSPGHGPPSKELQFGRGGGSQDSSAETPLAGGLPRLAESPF
Experimental: Activity of the peptides at the Glucagon receptor (GCGR) and GLP-1 receptor (GLP1R) was measured in a cAMP activity assay.
Peptides were dissolved in 100% DMSO and serially diluted to generate 10 point titrations. The peptide solutions were then transferred into 384-well assay plates (150 nL/well).
Assay ready frozen cells expressing human GLP1R or human GCGR were suspended in growth media consisting of DMEM medium (GIBCO), 10% FBS (GIBCO), 1x NEAA(GIBCO), 1x P/S (GIBCO), 10ug/ml Blasticidin (GIBCO) and 200 µg/mL Hygromycin (GIBCO). Cells were then diluted in assay buffer consisting of PBS (GIBCO), 7.5% BSA (Perkin Elmer), 100 µM RO 20-1724 (Sigma), with or without 20% human serum (MP Biomedical). The cell suspensions (15 µL) were then added to the assay plates containing the peptide solutions (30,000 cells/well for human GCGR; 10.000 cells/well for human GLP1R). The cells were incubated for 1 hour at room temperature in the dark. Production of cAMP was determined using HitHunter™ cAMPXS kits (DiscoverX) following manufacturer protocol. The plates were incubated for overnight at room temperature in the dark. Luminescence was measured using an EnVision Multilabel plate reader (Perkin Elmer). Native GLP-1 and Glucagon (Bachem) are used as control peptides. EC50 values were calculated using uses a 4 parameter logistic fit based on the Levenberg-Marquardt algorithm.

[1] = biological target: human Glucagon receptor (GCGR) (human, UniProt P47871); assay: cell-based or functional assay
[2] = biological target: human GLP-1 receptor (GLP1R) (human, UniProt P43220); assay: cell-based or functional assay

Row | hGCGR/hGLP1R (hTone) (human GCGR) | EC50 (human GCGR) [nM] | GCGR EC50 human (cAMP activity assay) [1] [nM] | GLP1R EC50 human (cAMP activity assay) [2] [nM] | Molecule
1 | 2.67 | – | – | – | CCCCCCCCCCCCCCCC(=O)N[C@@H](CCC(=O)N[C@@H](CCC(=O)NCCCC[C@H](NC(=O)[C@H](CC(=O)O)NC(=O)[C@H](CO)NC(=O)[C@@H](NC(=O)[C@H](Cc1ccccc1)NC(=O)[C@@H](NC(=O)CNC(=O)[C@H](CCC(N)=O)NC(=O)C(C)(C)NC(=O)[C@@H](N)Cc1c[nH]cn1)[C@@H](C)O)[C@@H](C)O)C(=O)N[C@@H](CO)C(=O)N[C@@H](CCCCN)C(=O)N[C@@H](Cc1ccc(O)cc1)C(=O)N[C@@H](CC(C)C)C(=O)N[C@@H](CC(=O)O)C(=O)NC(C)(C)C(=O)N[C@@H](CCCNC(=N)N)C(=O)N[C@@H](C)C(=O)N[C@@H](C)C(=O)N[C@@H](CCC(N)=O)C(=O)N[C@@H](CC(=O)O)C(=O)N[C@@H](Cc1ccccc1)C(=O)N[C@H](C(=O)N[C@H]1CCCC=CCCC[C@@H](C(=O)N[C@H](C(=O)N[C@@H](CCCCN)C(=O)N[C@@H](CCC(N)=O)C(=O)O)[C@@H](C)O)NC(=O)[C@H](CC(C)C)NC(=O)[C@H](CC(C)C)NC(=O)[C@H](Cc2c[nH]c3ccccc23)NC1=O)C(C)C)C(=O)O)C(=O)O [compound 16] (H-H[Aib]QGTFTSDK([γGlu-γGlu-Palmitoyl])SKYLD[Aib]RAAQDFV[Nle(6-ylidene)]WLL[Nle(6-ylidene)]TKQ-OH; staple 24-28)
2 | 1.82 | 5 | – | – | CC(C)C[C@H](NC(=O)[C@H](Cc1ccc(O)cc1)NC(=O)[C@H](CCCCN)NC(=O)[C@H](CO)NC(=O)[C@H](CCCCN)NC(=O)[C@H](CC(=O)O)NC(=O)[C@H](CO)NC(=O)[C@@H](NC(=O)[C@H](Cc1ccccc1)NC(=O)[C@@H](NC(=O)CNC(=O)[C@H](CCC(N)=O)NC(=O)[C@@H](CO)NC(=O)[C@@H](N)Cc1c[nH]cn1)[C@@H](C)O)[C@@H](C)O)C(=O)N[C@@H](CC(=O)O)C(=O)N[C@@H](CCC(=O)O)C(=O)N[C@@H](CCCNC(=N)N)C(=O)N[C@@H](C)C(=O)N[C@@H](C)C(=O)N[C@]1(C)CCCCC=CCCCCC[C@@](C)(C(=O)N[C@@H](CC(=O)O)C(=O)N[C@H](C(N)=O)[C@@H](C)O)NC(=O)[C@H](CC(C)C)NC(=O)[C@H](Cc2c[nH]c3ccccc23)NC(=O)[C@H](CCC(N)=O)NC(=O)[C@H](C(C)C)NC(=O)[C@H](Cc2ccccc2)NC(=O)[C@H](CC(=O)O)NC1=O [compound 11] (H-H[dS]QGTFTSDKSKYLDERAA[X1]DFVQWL[S7]DT-NH2; staple 20-27)
3 | – | 5 | – | – | CCCCCCCCCCCCCCCC(=O)N[C@@H](CCC(=O)N[C@@H](CCC(=O)NCCCC[C@H](NC(=O)[C@H](CC(=O)O)NC(=O)[C@H](CO)NC(=O)[C@@H](NC(=O)[C@H](Cc1ccccc1)NC(=O)[C@@H](NC(=O)CNC(=O)[C@H](CCC(N)=O)NC(=O)[C@@H](CO)NC(=O)[C@@H](N)Cc1c[nH]cn1)[C@@H](C)O)[C@@H](C)O)C(=O)N[C@@H](CO)C(=O)N[C@@H](CCCCN)C(=O)N[C@@H](Cc1ccc(O)cc1)C(=O)N[C@@H](CC(C)C)C(=O)N[C@@H](CC(=O)O)C(=O)N[C@@H](CCC(=O)O)C(=O)N[C@]1(C)CCCCC=CCCCCC[C@@](C)(C(=O)N[C@@H](Cc2c[nH]c3ccccc23)C(=O)N[C@@H](CC(C)C)C(=O)N[C@@H](CC(C)C)C(=O)N[C@@H](CC(=O)O)C(=O)N[C@H](C(N)=O)[C@@H](C)O)NC(=O)[C@H](C(C)C)NC(=O)[C@H](Cc2ccccc2)NC(=O)[C@H](CC(=O)O)NC(=O)[C@H](CCC(N)=O)NC(=O)[C@H](C)NC(=O)[C@H](C)NC1=O)C(=O)O)C(=O)O [compound 8] (H-H[dS]QGTFTSDK([γGlu-γGlu-Palmitoyl])SKYLDE[X1]AAQDFV[S7]WLLDT-NH2; staple 17-24)
4 | 19.02 | – | – | – | CCCCCCCCCCCCCCCC(=O)N[C@@H](CCC(=O)N[C@@H](CCC(=O)NCCCC[C@H](NC(=O)[C@H](CC(=O)O)NC(=O)[C@H](CO)NC(=O)[C@@H](NC(=O)[C@H](Cc1ccccc1)NC(=O)[C@@H](NC(=O)CNC(=O)[C@H](CCC(N)=O)NC(=O)[C@@H](CO)NC(=O)[C@@H](N)Cc1c[nH]cn1)[C@@H](C)O)[C@@H](C)O)C(=O)N[C@@H](CO)C(=O)N[C@@H](CCCCN)C(=O)N[C@@H](Cc1ccc(O)cc1)C(=O)N[C@@H](CC(C)C)C(=O)N[C@@H](CC(=O)O)C(=O)N[C@@H](CCC(=O)O)C(=O)N[C@@H](CCCNC(=N)N)C(=O)N[C@@H](C)C(=O)N[C@@H](C)C(=O)N[C@]1(C)CCCCC=CCCCCC[C@@](C)(C(=O)N[C@@H](CC(=O)O)C(=O)N[C@H](C(N)=O)[C@@H](C)O)NC(=O)[C@H](CC(C)C)NC(=O)[C@H](Cc2c[nH]c3ccccc23)NC(=O)[C@H](CCC(N)=O)NC(=O)[C@H](C(C)C)NC(=O)[C@H](Cc2ccccc2)NC(=O)[C@H](CC(=O)O)NC1=O)C(=O)O)C(=O)O [compound 10] (H-H[dS]QGTFTSDK([γGlu-γGlu-Palmitoyl])SKYLDERAA[X1]DFVQWL[S7]DT-NH2; staple 20-27)
5 | – | – | 20 | 5.3 | H[dS]QGTFTSDKS[R6me]YLDERA[S7]QDFVQWLLDT-NH2 (staple 12-19) [peptide of SEQ ID NO: 6 (TP397)]
6 | – | – | 4.56 | 0.13 | H[Aib]QGTFTSDK([γGlu-γGlu-Palmitoyl])SKYLD[Aib]RAAQDFV[S5]WLM[S5]TK-NH2 (staple 24-28; not fully specified (residue 30); printed as HUQGTFTSDK(γEγEC16)SKYLDURAAQDFV*S5meWLM*S5meTKγE-NH2; also: Lys 30 conjugated by a gamma-glutamic acid (KγE)) [peptide of SEQ ID NO: 14 (TP402)]
7 | – | – | 3.38 | 2.38 | HXQGTFTSDKSKYLDERAAXDFVXWLLDT (as printed: HsQGTFTSDKSKYLDERAA*S5HDFV*S5HWLLDT-NH2; s = D-Serine (position 2); two *S5H (positions 20 and 24) cyclized to form a double bond containing ring; C-terminal amide) [peptide of SEQ ID NO: 17 (TP 556)]
8 | – | – | 0.48 | 0.18 | H[Aib]QGTFTSDK([γGlu-γGlu-Palmitoyl])SKYLD[Aib]RAAQDFV[Gly(pent-4-enyl)]WLL[Gly(pent-4-enyl)]TK-NH2 (staple 24-28; not fully specified (residue 30); printed as HUQGTFTSDK(γEγEC16)SKYLDURAAQDFV*S5HWLL*S5HTKγE-NH2; also: Lys 30 conjugated by a gamma-glutamic acid (KγE)) [peptide of SEQ ID NO: 16 (TP551)]
9 | – | – | 5 | 5 | H[dS]QGTFTSDKSKYLDE[R6me]AAQDFV[S7]WLLDT-NH2 (staple 17-24) [peptide of SEQ ID NO: 9 (TP398)]
10 | – | – | 4.25 | 0.13 | H[Aib]QGTFTSDKSKYLD[Aib]RAAQDFV[Gly(pent-4-enyl)]WLL[Gly(pent-4-enyl)]TK-NH2 (staple 24-28; not fully specified (residue 30); printed as HUQGTFTSDKSKYLDURAAQDFV*S5HWLL*S5HTKγE-NH2; also: Lys 30 conjugated by a gamma-glutamic acid (KγE)) [peptide of SEQ ID NO: 18 (TP 557)]
11 | – | – | 0.67 | 1.5 | HXQGTFTSDXSKYLDERAAXDFVXWLLDT (as printed in Table 1: HsQGTFTSDK(γEγEC16)SKYLDERAA*S5HDFV*S5HWLLDT-NH2 (Table 2 prints HSQ...); s = D-Serine (position 2); Lys 10 conjugated to C16 fatty acid via γEγE; two *S5H = (S)-2-aminohept-6-enoic acid (positions 20 and 24) cyclized to form a double bond containing ring; C-terminal amide) [peptide of SEQ ID NO: 15 (TP506)]
12 | – | – | 5 | 2.74 | H[dS]QGTFTSDKSKYLDERAA[R6me]DFVQWL[S7]DT-NH2 (staple 20-27) [peptide of SEQ ID NO: 11 (TP 399)]
13 | – | – | 5 | 0.26 | H[Aib]QGTFTSDK([γGlu-γGlu-Palmitoyl])SKYLD[Aib]RAAQ[R6me]FVQWLM[S7]TK-NH2 (staple 21-28; not fully specified (residue 30); printed as HUQGTFTSDK(γEγEC16)SKYLDURAAQ*R6meFVQWLM*S7meTKγE-NH2; also: Lys 30 conjugated by a gamma-glutamic acid (KγE)) [peptide of SEQ ID NO: 13 (TP401)]
14 | – | – | 5 | 0.77 | HXQGTFTSDXSXYLDERAXQDFVQWLLDT (as printed: HsQGTFTSDK(γEγEC16)S*R6meYLDERA*S7meQDFVQWLLDT-NH2; s = D-Serine (position 2); Lys 10 conjugated to C16 fatty acid (-CO-(CH2)14-CH3) via γ-glutamic acid-γ-glutamic acid; *R6me (position 12) and *S7me (position 19) cyclized to form a double bond containing ring; C-terminal amide) [peptide of SEQ ID NO: 7 (TP397)]
15 | – | – | 5 | 2.28 | HXQGTFTSDXSKYLDEXAAQDFVXWLLDT (as printed: HsQGTFTSDK(γEγEC16)SKYLDE*R6meAAQDFV*S7meWLLDT-NH2; s = D-Serine (position 2); Lys 10 conjugated to C16 fatty acid via γEγE; *R6me (position 17) and *S7me (position 24) cyclized to form a double bond containing ring; C-terminal amide) [peptide of SEQ ID NO: 8 (TP398)]
16 | – | – | 2.15 | 2.79 | HXQGTFTSDKSKYLDERAAXDFVXWLLDT (as printed: HsQGTFTSDKSKYLDERAA*S5meDFV*S5meWLLDT-NH2; s = D-Serine (position 2); two *S5me (positions 20 and 24) cyclized to form a double bond containing ring; C-terminal amide) [peptide of SEQ ID NO: 19 (TP 558)]
17 | – | – | 8.64 | 0.45 | H[dS]QGTFTSDK([γGlu-γGlu-Palmitoyl])SKYLDERAA[R6me]DFVQWL[S7]DT-NH2 (staple 20-27) [peptide of SEQ ID NO: 10 (TP399)]
